Measured values reported in the supplement of paper PMC10567573.

B1: VTI1B (parent)
chain: NKLLLSIIILLELAILGGLVYYKF
B2: ZNF449 (parent)
chain: TLHQRTHTEERPFKCNYCGKSFRQ

Variants of: B1
Test: protein stability index of a GFP-peptide fusion (GPS, HEK-293T) (PSI 1-6); higher = more stable
Conditions: c terminus: a fixed tail appended
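Also: lentivirally expressed fusions sorted by FACS into six bins by GFP to DsRed ratio, PSI derived from sequencing read proportions per bin multiplied by bin number.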

Protein stability index: each site, then its substitutions
I7: V 2.32, M 3.23, K 2.41, A 2.32, D 2.84, Q 2.44, C 2.9, H 2.65, W 3.61, T 3.78, G 3.04, R 3.87, L 3.54, Y 2.74, F 2.31, E 1.86, N 2.1
I8: A 3.36, D 3.18, E 2.35, F 2.03
L3: P 3.24, R 3.98, Q 2.99, D 3.73, V 3.79, A 2.92, E 2.84, S 1.78, I 2.78, W 2.79, M 2.52, G 2.83, H 3.76, K 1.85, C 2.54, T 2.98, N 3.2, Y 3.55
S6: E 3.51, M 2.86, F 2.67, A 3.54, K 2.63, G 1.88, Y 2.76, P 3.12, H 2.51, C 3.11, R 3.55, W 2.11, D 2.42, L 2.02, N 2.47, T 3.52, V 2.5, I 1.85, Q 3.32
N1: L 2.74, C 3.66, D 3, M 2.75, S 2.63, H 3.67, V 2.54, A 3.04, T 3.56, W 3.84, Q 2.12, G 3.29, I 2.97, P 1.77, Y 2.36, R 2.99, K 1.85, F 2.82, E 4.24
L5: P 2.39, R 1.8, Q 4.28, W 1.86, V 2.08, D 2.64, T 3.88, K 2.14, Y 3.05, E 4.19, A 2.22, C 2.61, N 3.71, F 2.55, I 3.01, H 3.13
L4: C 2.35, A 3.17, G 2.29, Q 3.91, M 1.8, F 3.51, D 3.75, Y 2.34, H 3.22, I 2.94, V 2.82, S 2.38, W 2.25, T 1.51, E 2.47, N 2.28, K 2.39
K2: R 2.99, C 2.17, N 1.92, A 3.74, M 2.6, T 2.66, W 2.8, Y 3.38, I 3.89, P 2.43, D 2.35, V 3.38, H 2.48, S 2.46, F 3.52, E 2, Q 4.47

Variants of: B2
Test: as above
Conditions: c terminus: a fixed tail appended

Protein stability index of substitutions, site by site:
Q24: M 2.77, D 2.24, H 2.12, G 2.62, A 2.55, Y 3.2, C 1.84, T 2.75, F 2.56, L 2.36, P 2.87, W 2.12, R 1.67, N 2.27, I 1.68, E 2.88, V 1.75, S 3.49
C15: M 2.82, A 2.49, I 3.13, W 2.59, K 3.55, P 3.1, Q 3.37, H 3.4, T 3.29, S 3.7, D 3.87, V 2.67, Y 3.26, F 2.98, L 1.4, G 3.43, R 2.61, N 3.41
K14: Q 2.22, Y 1.93, P 2.83, T 1.9, N 1.95, W 2.1, H 2.31, L 1.73, M 2.2, C 2.71, I 2.27, F 2.85, S 2.34, D 2.41
F22: H 3.05, G 2.35, I 2.02, D 3.12, Y 2.35, W 1.74, K 3.37, C 3.22, R 1.48, E 3.02, A 3.02, P 3.03, L 1.82, N 3.51, V 3.59, M 2.28, Q 2.88, T 2.49, S 2.85
R23: K 2.97, D 3, A 2.69, T 2.7, H 2.79, S 2.67, W 2.29, E 3.53, M 2.8, V 2.15, P 2.58, I 3.2, C 4.7, Y 2.72, F 2.21, G 2.27, N 2.35, L 2.4, Q 2.16
K20: G 1.61, I 2.1, H 1.91, Q 1.82, Y 1.9, M 2.79, V 2.41, T 2.58, S 2.12, C 1.86, D 2.83, R 3.28, F 1.78, A 1.97, P 2.31, L 2.07, W 1.88, N 2.37, E 1.79
N16: K 2.76, E 2.13, V 2.86, L 1.85, W 2.04, C 1.73, T 2.67, I 2.27, D 2.16, S 3.03, M 2.1, Q 2.98, Y 2.61, F 2.75, R 1.65, A 2.44, G 1.95, H 1.93, P 3.32
G19: P 2.67, H 2.92, A 2.14, V 2.09, W 1.97, I 3.3, R 2.6, C 2.38, Q 2.96, N 2.48, Y 2.7, E 2.68, M 2.73, K 2.79, L 2.72, D 3.4, S 2.06, F 2.38, T 2.4
S21: R 2.38, C 2.02, M 2.19, W 2.29, Q 2.27, F 1.68, A 1.92, I 2.26, L 3.6, P 2.15, D 2.75, V 2.29, K 2.32, H 2.58, N 2.69, E 3.13, G 1.82, T 2.91
Y17: S 2.55, A 1.93, T 2.62, I 2.14, D 2.09, P 2.98, F 2.22, L 2.15, M 2.4, V 2.32, K 2.67, Q 3.16, N 3.21, E 2.3, R 2.92, C 2, W 2.61
C18: S 3.17, K 3.12, W 2.33, R 3.38, A 3.61, Q 2.26, L 2.61, G 3.02, F 2.85, T 3.4, I 2.92, H 2.96, N 3.68, Y 2.43, D 3.48, E 3.78, V 2.12, M 2.72, P 2.91
F13: M 2.18, Q 2.92, S 2.26, T 3.78, P 2.24, R 1.69, N 3.54, Y 2.22
